Measured values: patent US20140220031A1 (Biogen, published 2014)

target: T1, CD154 (human, UniProt P29965 113-261, limits assumed); experiment: assay not given
T1 construct: also called CD40 ligand; CD40L
T1 sequence (looked up): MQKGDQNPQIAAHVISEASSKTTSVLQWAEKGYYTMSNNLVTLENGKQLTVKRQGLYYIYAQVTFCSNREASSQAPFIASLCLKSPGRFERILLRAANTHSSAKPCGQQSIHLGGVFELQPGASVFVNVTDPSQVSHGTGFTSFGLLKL

| Binder | fold higher affinity compared to the wild type [fold over wild type] |
| --- | --- |
| 5c8 Fab Mutant #25 (heavy chain T30H/Y33W; light chain S26D/Q27E/T33W) (Fab, V domains shown, Fab fragment; also called combination 5 point mutation (assigned)) VH: QVQLVQSGAEVVKPGASVKLSCKASGYIFHSYWMYWVKQAPGQGLEWIGEINPSNGDTNFNEKFKSKATLTVDKSASTAYMELSSLRSEDTAVYYCTRSDGRNDMDSWGQGTLVTVSS VL: DIVLTQSPATLSVSPGERATISCRADERVSSSWYSYMHWYQQKPGQPPKLLIKYASNLESGVPARFSGSGSGTDFTLTISSVEPEDFATYYCQHSWEIPPTFGGGTKLEIK | 25 |

target: T1, CD154; experiment: ELISA-based competitive binding assay; unlabeled Fab against biotin-labeled 5c8 Fab competitor

| Binder | ELISA fold-improvement over wildtype [fold over wildtype] |
| --- | --- |
| 5c8 Fab Mutant #1 (heavy chain T30H) (Fab, V domains shown, Fab fragment) VH: QVQLVQSGAEVVKPGASVKLSCKASGYIFHSYYMYWVKQAPGQGLEWIGEINPSNGDTNFNEKFKSKATLTVDKSASTAYMELSSLRSEDTAVYYCTRSDGRNDMDSWGQGTLVTVSS VL: DIVLTQSPATLSVSPGERATISCRASQRVSSSTYSYMHWYQQKPGQPPKLLIKYASNLESGVPARFSGSGSGTDFTLTISSVEPEDFATYYCQHSWEIPPTFGGGTKLEIK | 2.3 |
| 5c8 Fab Mutant #2 (heavy chain Y33W) (Fab, V domains shown, Fab fragment) VH: QVQLVQSGAEVVKPGASVKLSCKASGYIFTSYWMYWVKQAPGQGLEWIGEINPSNGDTNFNEKFKSKATLTVDKSASTAYMELSSLRSEDTAVYYCTRSDGRNDMDSWGQGTLVTVSS VL: DIVLTQSPATLSVSPGERATISCRASQRVSSSTYSYMHWYQQKPGQPPKLLIKYASNLESGVPARFSGSGSGTDFTLTISSVEPEDFATYYCQHSWEIPPTFGGGTKLEIK | 7 |
| 5c8 Fab Mutant #4 (heavy chain S54N) (Fab, V domains shown, Fab fragment) VH: QVQLVQSGAEVVKPGASVKLSCKASGYIFTSYYMYWVKQAPGQGLEWIGEINPNNGDTNFNEKFKSKATLTVDKSASTAYMELSSLRSEDTAVYYCTRSDGRNDMDSWGQGTLVTVSS VL: DIVLTQSPATLSVSPGERATISCRASQRVSSSTYSYMHWYQQKPGQPPKLLIKYASNLESGVPARFSGSGSGTDFTLTISSVEPEDFATYYCQHSWEIPPTFGGGTKLEIK | 2 |
| 5c8 Fab Mutant #5 (light chain T33W) (Fab, V domains shown, Fab fragment) VH: QVQLVQSGAEVVKPGASVKLSCKASGYIFTSYYMYWVKQAPGQGLEWIGEINPSNGDTNFNEKFKSKATLTVDKSASTAYMELSSLRSEDTAVYYCTRSDGRNDMDSWGQGTLVTVSS VL: DIVLTQSPATLSVSPGERATISCRASQRVSSSWYSYMHWYQQKPGQPPKLLIKYASNLESGVPARFSGSGSGTDFTLTISSVEPEDFATYYCQHSWEIPPTFGGGTKLEIK | 5 |
| 5c8 Fab Mutant #6 (light chain S26D) (Fab, V domains shown, Fab fragment) VH: QVQLVQSGAEVVKPGASVKLSCKASGYIFTSYYMYWVKQAPGQGLEWIGEINPSNGDTNFNEKFKSKATLTVDKSASTAYMELSSLRSEDTAVYYCTRSDGRNDMDSWGQGTLVTVSS VL: DIVLTQSPATLSVSPGERATISCRADQRVSSSTYSYMHWYQQKPGQPPKLLIKYASNLESGVPARFSGSGSGTDFTLTISSVEPEDFATYYCQHSWEIPPTFGGGTKLEIK | 2.6 |
| 5c8 Fab Mutant #7 (light chain Q27E) (Fab, V domains shown, Fab fragment) VH: QVQLVQSGAEVVKPGASVKLSCKASGYIFTSYYMYWVKQAPGQGLEWIGEINPSNGDTNFNEKFKSKATLTVDKSASTAYMELSSLRSEDTAVYYCTRSDGRNDMDSWGQGTLVTVSS VL: DIVLTQSPATLSVSPGERATISCRASERVSSSTYSYMHWYQQKPGQPPKLLIKYASNLESGVPARFSGSGSGTDFTLTISSVEPEDFATYYCQHSWEIPPTFGGGTKLEIK | 6.3 |
| 5c8 Fab Mutant #8 (light chain S31V) (Fab, V domains shown) VH: QVQLVQSGAEVVKPGASVKLSCKASGYIFTSYYMYWVKQAPGQGLEWIGEINPSNGDTNFNEKFKSKATLTVDKSASTAYMELSSLRSEDTAVYYCTRSDGRNDMDSWGQGTLVTVSS VL: DIVLTQSPATLSVSPGERATISCRASQRVSVSTYSYMHWYQQKPGQPPKLLIKYASNLESGVPARFSGSGSGTDFTLTISSVEPEDFATYYCQHSWEIPPTFGGGTKLEIK | 0.02 |
| 5c8 Fab Mutant #9 (light chain T33D) (Fab, V domains shown) VH: QVQLVQSGAEVVKPGASVKLSCKASGYIFTSYYMYWVKQAPGQGLEWIGEINPSNGDTNFNEKFKSKATLTVDKSASTAYMELSSLRSEDTAVYYCTRSDGRNDMDSWGQGTLVTVSS VL: DIVLTQSPATLSVSPGERATISCRASQRVSSSDYSYMHWYQQKPGQPPKLLIKYASNLESGVPARFSGSGSGTDFTLTISSVEPEDFATYYCQHSWEIPPTFGGGTKLEIK | 0.22 |
| 5c8 Fab Mutant #10 (light chain Y54E) (Fab, V domains shown) VH: QVQLVQSGAEVVKPGASVKLSCKASGYIFTSYYMYWVKQAPGQGLEWIGEINPSNGDTNFNEKFKSKATLTVDKSASTAYMELSSLRSEDTAVYYCTRSDGRNDMDSWGQGTLVTVSS VL: DIVLTQSPATLSVSPGERATISCRASQRVSSSTYSYMHWYQQKPGQPPKLLIKEASNLESGVPARFSGSGSGTDFTLTISSVEPEDFATYYCQHSWEIPPTFGGGTKLEIK | 0.06 |
| 5c8 Fab Mutant #11 (heavy chain Y33F) (Fab, V domains shown) VH: QVQLVQSGAEVVKPGASVKLSCKASGYIFTSYFMYWVKQAPGQGLEWIGEINPSNGDTNFNEKFKSKATLTVDKSASTAYMELSSLRSEDTAVYYCTRSDGRNDMDSWGQGTLVTVSS VL: DIVLTQSPATLSVSPGERATISCRASQRVSSSTYSYMHWYQQKPGQPPKLLIKYASNLESGVPARFSGSGSGTDFTLTISSVEPEDFATYYCQHSWEIPPTFGGGTKLEIK | 0.05 |
| 5c8 Fab Mutant #12 (heavy chain N59D) (Fab, V domains shown, also called Asn59Asp) VH: QVQLVQSGAEVVKPGASVKLSCKASGYIFTSYYMYWVKQAPGQGLEWIGEINPSNGDTDFNEKFKSKATLTVDKSASTAYMELSSLRSEDTAVYYCTRSDGRNDMDSWGQGTLVTVSS VL: DIVLTQSPATLSVSPGERATISCRASQRVSSSTYSYMHWYQQKPGQPPKLLIKYASNLESGVPARFSGSGSGTDFTLTISSVEPEDFATYYCQHSWEIPPTFGGGTKLEIK | 0.13 |
| 5c8 Fab Mutant #13 (heavy chain N59L) (Fab, V domains shown, also called Asn59Leu) VH: QVQLVQSGAEVVKPGASVKLSCKASGYIFTSYYMYWVKQAPGQGLEWIGEINPSNGDTLFNEKFKSKATLTVDKSASTAYMELSSLRSEDTAVYYCTRSDGRNDMDSWGQGTLVTVSS VL: DIVLTQSPATLSVSPGERATISCRASQRVSSSTYSYMHWYQQKPGQPPKLLIKYASNLESGVPARFSGSGSGTDFTLTISSVEPEDFATYYCQHSWEIPPTFGGGTKLEIK | 0.01 |
| 5c8 Fab Mutant #14 (light chain S26D/Q27E) (Fab, V domains shown, Fab fragment; also called double mutant) VH: QVQLVQSGAEVVKPGASVKLSCKASGYIFTSYYMYWVKQAPGQGLEWIGEINPSNGDTNFNEKFKSKATLTVDKSASTAYMELSSLRSEDTAVYYCTRSDGRNDMDSWGQGTLVTVSS VL: DIVLTQSPATLSVSPGERATISCRADERVSSSTYSYMHWYQQKPGQPPKLLIKYASNLESGVPARFSGSGSGTDFTLTISSVEPEDFATYYCQHSWEIPPTFGGGTKLEIK | 5.6 |
| 5c8 Fab Mutant #15 (light chain S26D/Q27E/T33W) (Fab, V domains shown, Fab fragment) VH: QVQLVQSGAEVVKPGASVKLSCKASGYIFTSYYMYWVKQAPGQGLEWIGEINPSNGDTNFNEKFKSKATLTVDKSASTAYMELSSLRSEDTAVYYCTRSDGRNDMDSWGQGTLVTVSS VL: DIVLTQSPATLSVSPGERATISCRADERVSSSWYSYMHWYQQKPGQPPKLLIKYASNLESGVPARFSGSGSGTDFTLTISSVEPEDFATYYCQHSWEIPPTFGGGTKLEIK | 3.8 |
| 5c8 Fab Mutant #16 (heavy chain T30H; light chain S26D/Q27E) (Fab, V domains shown, Fab fragment) VH: QVQLVQSGAEVVKPGASVKLSCKASGYIFHSYYMYWVKQAPGQGLEWIGEINPSNGDTNFNEKFKSKATLTVDKSASTAYMELSSLRSEDTAVYYCTRSDGRNDMDSWGQGTLVTVSS VL: DIVLTQSPATLSVSPGERATISCRADERVSSSTYSYMHWYQQKPGQPPKLLIKYASNLESGVPARFSGSGSGTDFTLTISSVEPEDFATYYCQHSWEIPPTFGGGTKLEIK | 5.8 |
| 5c8 Fab Mutant #17 (heavy chain Y33W; light chain S26D/Q27E/T33W) (Fab, V domains shown, Fab fragment) VH: QVQLVQSGAEVVKPGASVKLSCKASGYIFTSYWMYWVKQAPGQGLEWIGEINPSNGDTNFNEKFKSKATLTVDKSASTAYMELSSLRSEDTAVYYCTRSDGRNDMDSWGQGTLVTVSS VL: DIVLTQSPATLSVSPGERATISCRADERVSSSWYSYMHWYQQKPGQPPKLLIKYASNLESGVPARFSGSGSGTDFTLTISSVEPEDFATYYCQHSWEIPPTFGGGTKLEIK | 5.9 |
| 5c8 Fab Mutant #18 (heavy chain T30H; light chain S26D/Q27E/T33W) (Fab, V domains shown, Fab fragment) VH: QVQLVQSGAEVVKPGASVKLSCKASGYIFHSYYMYWVKQAPGQGLEWIGEINPSNGDTNFNEKFKSKATLTVDKSASTAYMELSSLRSEDTAVYYCTRSDGRNDMDSWGQGTLVTVSS VL: DIVLTQSPATLSVSPGERATISCRADERVSSSWYSYMHWYQQKPGQPPKLLIKYASNLESGVPARFSGSGSGTDFTLTISSVEPEDFATYYCQHSWEIPPTFGGGTKLEIK | 5.4 |
| 5c8 Fab Mutant #23 (heavy chain Y33W; light chain S26D/Q27E) (Fab, V domains shown, Fab fragment) VH: QVQLVQSGAEVVKPGASVKLSCKASGYIFTSYWMYWVKQAPGQGLEWIGEINPSNGDTNFNEKFKSKATLTVDKSASTAYMELSSLRSEDTAVYYCTRSDGRNDMDSWGQGTLVTVSS VL: DIVLTQSPATLSVSPGERATISCRADERVSSSTYSYMHWYQQKPGQPPKLLIKYASNLESGVPARFSGSGSGTDFTLTISSVEPEDFATYYCQHSWEIPPTFGGGTKLEIK | 5.2 |
| 5c8 Fab Mutant #24 (heavy chain T30H/Y33W; light chain S26D/Q27E) (Fab, V domains shown, Fab fragment) VH: QVQLVQSGAEVVKPGASVKLSCKASGYIFHSYWMYWVKQAPGQGLEWIGEINPSNGDTNFNEKFKSKATLTVDKSASTAYMELSSLRSEDTAVYYCTRSDGRNDMDSWGQGTLVTVSS VL: DIVLTQSPATLSVSPGERATISCRADERVSSSTYSYMHWYQQKPGQPPKLLIKYASNLESGVPARFSGSGSGTDFTLTISSVEPEDFATYYCQHSWEIPPTFGGGTKLEIK | 8 |
| 5c8 Fab Mutant #25 (heavy chain T30H/Y33W; light chain S26D/Q27E/T33W) (Fab, V domains shown, Fab fragment; also called combination 5 point mutation (assigned)) VH: QVQLVQSGAEVVKPGASVKLSCKASGYIFHSYWMYWVKQAPGQGLEWIGEINPSNGDTNFNEKFKSKATLTVDKSASTAYMELSSLRSEDTAVYYCTRSDGRNDMDSWGQGTLVTVSS VL: DIVLTQSPATLSVSPGERATISCRADERVSSSWYSYMHWYQQKPGQPPKLLIKYASNLESGVPARFSGSGSGTDFTLTISSVEPEDFATYYCQHSWEIPPTFGGGTKLEIK | 5.6 |

target: T1, CD154; experiment: assay not named in the sentence (mutants characterized by competitive ELISA)

| Binder | fold higher affinity compared to the wildtype 5c8 Fab [fold over wildtype] |
| --- | --- |
| 5c8 Fab Mutant #14 (light chain S26D/Q27E) (Fab, V domains shown, Fab fragment; also called double mutant) VH: QVQLVQSGAEVVKPGASVKLSCKASGYIFTSYYMYWVKQAPGQGLEWIGEINPSNGDTNFNEKFKSKATLTVDKSASTAYMELSSLRSEDTAVYYCTRSDGRNDMDSWGQGTLVTVSS VL: DIVLTQSPATLSVSPGERATISCRADERVSSSTYSYMHWYQQKPGQPPKLLIKYASNLESGVPARFSGSGSGTDFTLTISSVEPEDFATYYCQHSWEIPPTFGGGTKLEIK | 9 |
